Substitutions are numbered along the chain they refer to.
T1: human α-CGRP (Bachem H1470) (human, UniProt P06881 83-119)
T1 peptide (looked up): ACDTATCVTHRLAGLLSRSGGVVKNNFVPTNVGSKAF

B1: Antibody I (antibody, human IgG4 S228P, kappa, F234A L235A, V domains shown)
VH: QVQLVQSGAEVKKPGASVKVSCKASGYTFGNYWMQWVRQAPGQGLEWMGAIYEGTGDTRYIQKFAGRVTMTRDTSTSTVYMELSSLRSEDTAVYYCARLSDYVSGFSYWGQGTLVTVSS
VL: DIQMTQSPSSLSASVGDRVTITCRASQDIDNYLNWYQQKPGKAPKLLIYYTSEYHSGVPSRFSGSGSGTDFTFTISSLQPEDIATYYCQQGDALPPTFGQGTKLEIKR
B2: Antibody II (antibody, human IgG4 S228P, kappa, F234A L235A, V domains shown)
VH: B1 VH with D57K, R59V
VL: B1 VL
B3: Antibody III (antibody, human IgG4 S228P, kappa, F234A L235A, V domains shown)
VH: B1 VH with A16S, D57K, R59V, G66D, M70I, R72A, T74K, V79A, S107G, L114T
VL: B1 VL with Q27K, D30S, N31K, E53G, F73L, I83F, Q100G, L104V
B4: Antibody V (antibody, human IgG4 S228P, kappa, F234A L235A, V domains shown)
VH: B1 VH with A16S, D57K, R59V, M70I, R72A, T74K, V79A, S107G, L114T
VL: B1 VL with N31K, E53G, F73L, I83F, Q100G, L104V
B5: Antibody IV (antibody, human IgG4 S228P, kappa, F234A L235A, V domains shown)
VH: B1 VH with D57K, R59V, S107G
VL: B1 VL with Q27R, D28P, N31K
B6: Antibody G1 (antibody, V domains shown)
VH: EVQLVESGGGLVQPGGSLRLSCAASGFTFSNYWISWVRQAPGKGLEWVAEIRSESDASATHYAEAVKGRFTISRDNAKNSLYLQMNSLRAEDTAVYYCLAYFDYGLAIQNYWGQGTLVTVSS
VL: EIVLTQSPATLSLSPGERATLSCKASKRVTTYVSWYQQKPGQAPRLLIYGASNRYLGIPARFSGSGSGTDFTLTISSLEPEDFAVYYCSQSYNYPYTFGQGTKLEIK

Assays:
[1] = biological target: Human CGRP (human) (UniProt P06881); test: SPR, Biacore T100, 37 C
[2] = biological target: Human CGRP (human) (UniProt P06881); test: SPR, Biacore T100, 37 C, antibody captured on protein A, CGRP as analyte; n=1
[3] = biological target: Human CGRP (human) (UniProt P06881); test: SPR, Biacore T100, 37 C, antibody captured on protein A, CGRP as analyte; mean ± SD, n=3
[4] = biological target: T1, human α-CGRP (Bachem H1470); test: cell-based or functional assay
[5] = biological target: Human CGRP (human) (UniProt P06881); test: SPR, Biacore T100, 37 C, antibody captured on protein A, CGRP as analyte; mean ± SD, n=6
[6] = biological target: Human CGRP (human) (UniProt P06881); test: SPR, Biacore T100, 37 C, antibody captured on protein A, CGRP as analyte; mean ± SD, n=2
[7] = biological target: Human CGRP (human) (UniProt P06881); test: SPR, Biacore T100, 37 C, antibody captured on protein A, CGRP as analyte; mean ± SD, n=4

Row | Binder | Kd [1] [nM] | inhibition of CGRP induced cAMP formation in SK-N-MC cells (IC50) [4] [nM] | other results
1 | B1 | < 200000 | – | Kd [2]: 0.19 nM
2 | B2 | < 200000 | – | Kd [3]: 0.026 nM
3 | B3 | < 200000 | 0.41 | Kd [5]: 0.031 nM
4 | B4 | < 200000 | – | Kd [6]: 0.024 nM
5 | B5 | < 200000 | – | Kd [7]: 0.024 nM
6 | B6 | – | 5.36 | –

Source: US20110305711A1 (Eli Lilly, published 2011)
